Patent US20100068742

T1: chicken maltose binding protein-MYPT (amino acids 714-1004), Q90623
T1 chain: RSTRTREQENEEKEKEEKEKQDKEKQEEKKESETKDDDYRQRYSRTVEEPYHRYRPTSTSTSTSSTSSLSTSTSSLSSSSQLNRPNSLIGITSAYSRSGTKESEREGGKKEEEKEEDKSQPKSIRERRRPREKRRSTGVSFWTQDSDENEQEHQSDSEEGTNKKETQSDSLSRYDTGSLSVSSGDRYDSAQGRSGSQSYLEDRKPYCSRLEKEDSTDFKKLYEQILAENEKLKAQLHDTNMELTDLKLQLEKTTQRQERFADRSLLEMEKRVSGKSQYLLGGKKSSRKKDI

T2: Nictide (RLGWWRFYTLRRARQGNTKQR)
T2 chain: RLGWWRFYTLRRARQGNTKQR


Experiments:
[1] = biological target: LRRKtide with -2Tyr mutated to Arg
[2] = biological target: T1, chicken maltose binding protein-MYPT …
[3] = biological target: LRRKtide with +1Leu mutated to Ala
[4] = biological target: GST-ezrin (amino acids 1-586), P15311
[5] = biological target: T2, Nictide (RLGWWRFYTLRRARQGNTKQR)

GST-ezrin (amino acids 1-586), P15311, sequence (P15311 whole entry, the tested form may be a part): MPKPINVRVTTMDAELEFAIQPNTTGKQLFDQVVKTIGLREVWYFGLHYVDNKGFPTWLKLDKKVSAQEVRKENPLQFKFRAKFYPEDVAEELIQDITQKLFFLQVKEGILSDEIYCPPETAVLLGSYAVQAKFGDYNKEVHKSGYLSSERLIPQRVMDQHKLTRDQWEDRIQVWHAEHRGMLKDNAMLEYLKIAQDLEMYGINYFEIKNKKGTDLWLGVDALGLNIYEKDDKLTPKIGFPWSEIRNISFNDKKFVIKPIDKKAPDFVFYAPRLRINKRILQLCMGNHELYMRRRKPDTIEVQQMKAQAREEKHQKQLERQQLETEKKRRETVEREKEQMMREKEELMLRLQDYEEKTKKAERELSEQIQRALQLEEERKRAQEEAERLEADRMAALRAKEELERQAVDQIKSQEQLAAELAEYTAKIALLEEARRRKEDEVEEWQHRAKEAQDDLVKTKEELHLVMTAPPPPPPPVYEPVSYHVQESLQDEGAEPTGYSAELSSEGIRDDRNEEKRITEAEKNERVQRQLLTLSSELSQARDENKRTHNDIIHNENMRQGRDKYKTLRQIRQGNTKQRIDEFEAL

Protein | fold decrease of Km against wild type LRRKtide [1] | fold increase of Vmax against wild type LRRKtide [1] | protein substrate phosphorylation (32P autoradiography) [2] | peptide phosphorylation [3] | protein substrate phosphorylation (32P autoradiography) [4] | Km of peptide phosphorylation [5] | fold decrease of Vmax against LRRK2[G2019S] [5]
rat ROCK2 (amino acids 2-543) (protein) SRPPPTGKMPGAPEAAAGDGAGAGRQRKLEALIRDPRSPINVESLLDGLNSLVLDLDFPALRKNKNIDNFLNRYEKIVKKIRGLQMKAEDYDVVKVIGRGAFGEVQLVRHKASQKVYAMKLLSKFEMIKRSDSAFFWEERDIMAFANSPWVVQLFCAFQDDRYLYMVMEYMPGGDLVNLMSNYDVPEKWAKFYTAEVVLALDAIHSMGLIHRDVKPDNMLLDKHGHLKLADFGTCMKMDETGMVHCDTAVGTPDYISPEVLKSQGGDGYYGRECDWWSVGVFLFEMLVGDTPFYADSLVGTYSKIMDHKNSLCFPEDTEISKHAKNLICAFLTDREVRLGRNGVEEIKSASFFKNDQWNWDNIRETAAPVVPELSSDIDSSNFDDIEDDKGDVETFPIPKAFVGNQLPFIGFTYFRENLLLSDSPPCRENDAIQTRKSEESQEIQKKLYALEEHLSSEVQAKEELEQKCKSINTRLEKTAKELEEEITFRKNVESTLRQLEREKALLQHKNAEYQRKADHEADKKRNLENDVNSLKDQLEDL | decreased the Km value over 60-fold | increased the Vmax over 5-fold | ROCK2 phosphorylated MYPT | abolished phosphorylation by ROCK2 | but barely ezrin |  | 
GST-LRRK2 1326-2527 [wild type] (protein) LKKAVPYNRMKLMIVGNTGSGKTTLLQQLMKTKKSDLGMQSATVGIDVKDWPIQIRDKRKRDLVLNVWDFAGREEFYSTHPHFMTQRALYLAVYDLSKGQAEVDAMKPWLFNIKARASSSPVILVGTHLDVSDEKQRKACMSKITKELLNKRGFPAIRDYHFVNATEESDALAKLRKTIINESLNFKIRDQLVVGQLIPDCYVELEKIILSERKNVPIEFPVIDRKRLLQLVRENQLQLDENELPHAVHFLNESGVLLHFQDPALQLSDLYFVEPKWLCKIMAQILTVKVEGCPKHPKGIISRRDVEKFLSKKRKFPKNYMSQYFKLLEKFQIALPIGEEYLLVPSSLSDHRPVIELPHCENSEIIIRLYEMPYFPMGFWSRLINRLLEISPYMLSGRERALRPNRMYWRQGIYLNWSPEAYCLVGSEVLDNHPESFLKITVPSCRKGCILLGQVVDHIDSLMEEWFPGLLEIDICGEGETLLKKWALYSFNDGEEHQKILLDDLMKKAEEGDLLVNPDQPRLTIPISQIAPDLILADLPRNIMLNNDELEFEQAPEFLLGDGSFGSVYRAAYEGEEVAVKIFNKHTSLRLLRQELVVLCHLHHPSLISLLAAGIRPRMLVMELASKGSLDRLLQQDKASLTRTLQHRIALHVADGLRYLHSAMIIYRDLKPHNVLLFTLYPNAAIIAKIADYGIAQYCCRMGIKTSEGTPGFRAPEVARGNVIYNQQADVYSFGLLLYDILTTGGRIVEGLKFPNEFDELEIQGKLPDPVKEYGCAPWPMVEKLIKQCLKENPQERPTSAQVFDILNSAELVCLTRRILLPKNVIVECMVATHHNSRNASIWLGCGHTDRGQLSFLDLNTEGYTSEEVADSRILCLALVHLPVEKESWIVSGTQSGTLLVINTEDGKKRHTLEKMTDSVTCLYCNSFSKQSKQKNFLLVGTADGKLAIFEDKTVKLKGAAPLKILNIGNVSTPLMCLSESTNSTERNVMWGGCGTKIFSFSNDFTIQKLIETRTSQLFSYAAFSDSNIITVVVDTALYIAKQNSPVVEVWDKKTEKLCGLIDCVHFLREVMVKENKESKHKMSYSGRVKTLCLQKNTALWIGTGGGHILLLDLSTRRLIRVIYNFCNSVRVMMTAQLGSLKNVMLVLGYNRKNTEGTQKQKEIQSCLTVWDINLPHEVQNLEKHIEVRKELAEKMRRTSVE |  |  | did not phosphorylate MYPT |  | LRRK2 phosphorylated ezrin | a similar Km | ~2-fold lower Vmax
